This note sets out measurements from patent US6897054.

In one series the target is T1, myc-tagged H37 protein.
T1 chain: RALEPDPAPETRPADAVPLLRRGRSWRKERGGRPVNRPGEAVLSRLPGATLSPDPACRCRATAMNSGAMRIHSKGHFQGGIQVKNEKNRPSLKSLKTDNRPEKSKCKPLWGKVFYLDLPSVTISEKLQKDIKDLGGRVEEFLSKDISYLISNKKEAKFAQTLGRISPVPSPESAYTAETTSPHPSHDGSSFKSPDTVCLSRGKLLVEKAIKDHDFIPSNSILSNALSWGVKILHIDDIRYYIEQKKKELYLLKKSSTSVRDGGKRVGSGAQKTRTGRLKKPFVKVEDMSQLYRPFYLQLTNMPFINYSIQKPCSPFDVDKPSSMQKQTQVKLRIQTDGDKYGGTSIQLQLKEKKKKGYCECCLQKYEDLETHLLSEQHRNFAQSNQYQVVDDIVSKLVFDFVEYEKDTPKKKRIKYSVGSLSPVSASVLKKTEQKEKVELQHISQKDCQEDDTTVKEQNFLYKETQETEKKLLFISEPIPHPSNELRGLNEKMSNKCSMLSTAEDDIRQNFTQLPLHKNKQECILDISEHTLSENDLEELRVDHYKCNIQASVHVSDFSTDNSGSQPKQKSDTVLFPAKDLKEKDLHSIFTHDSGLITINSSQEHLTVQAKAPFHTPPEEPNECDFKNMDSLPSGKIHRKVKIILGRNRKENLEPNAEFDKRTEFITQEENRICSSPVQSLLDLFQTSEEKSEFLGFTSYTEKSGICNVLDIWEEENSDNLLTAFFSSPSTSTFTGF

Series [1] addresses huCdc7 fused to DNA-binding domain of Gal4 (human). The experiment in a line: yeast two-hybrid assay, lacZ activity.

B1: huCdc7 (protein)
chain: MEASLGIQMDEPMAFSPQRDRFQAEGSLKKNEQNFKLAGVKKDIEKLYEAVPQLSNVFKIEDKIGEGTFSSVYLATAQLQVGPEEKIALKHLIPTSHPIRIAAELQCLTVAGGQDNVMGVKYCFRKNDHVVIAMPYLEHESFLDILNSLSFQEVREYMLNLFKALKRIHQFGIVHRDVKPSNFLYNRRLKKYALVDFGLAQGTHDTKIELLKFVQSEAQQERCSQNKSHIITGNKIPLSGPVPKELDQQSTTKASVKRPYTNAQIQIKQGKDGKEGSVGLSVQRSVFGERNFNIHSSISHESPAVKLMKQSKTVDVLSRKLATKKKAISTKVMNSAVMRKTASSCPASLTCDCYATDKVCSICLSRRQQVAPRAGTPGFRAPEVLTKCPNQTTAIDMWSAGVIFLSLLSGRYPFYKASDDLTALAQIMTIRGSRETIQAAKTFGKSILCSKEVPAQDLRKLCERLRGMDSSTPKLTSDIQGHASHQPAISEKTDHKASCLVQTPPGQYSGNSFKKGDSNSCEHCFDEYNTNLEGWNEVPDEAYDLLDKLLDLNPASRITAEEALLHPFFKDMSL
For the molecule B1, in the series with myc-tagged H37 protein, the “in vitro kinase reaction of huCdc7/H37 immunoprecipitates with GST-MCM3 fusion protein as substrate” value is “phosphorylation in a good efficiency was observed for the MCM3 protein in both immunoprecipitate of anti-huCdc7 antibody and immunoprecipitate of anti-myc antibody”.

B2: H37 deletion derivative ΔC fused to Gal4 activation domain (protein, not shown: large carriers)
chain: MNSGAMRIHSKGHFQGGIQVKNEKNRPSLKSLKTDNRPEKSKCKPLWGKVFYLDLPSVTISEKLQKDIKDLGGRVEEFLSKDISYLISNKKEAKFAQTLGRISPVPSPESAYTAETTSPHPSHDGSSFKSPDTVCLSRGKLLVEKAIKDHDFIPSNSILSNALSWGVKILHIDDIRYYIEQKKKELYLLKKSSTSVRDGGKRVGSGAQKTRTGRLKKPFVKVEDMSQLYRPFYLQLTNMPFINYSIQKPCSPFDVDKPSSMQKQTQVKLRIQTDGDKYGGTSIQLQLKEKKKKGYCECCLQKYEDLETHLLSEQHRNFAQSNQYQVVDDIVSKLVFDFVEYEKDTPKKKRIKYSVGSLSPVSASVLKKTEQKEKVELQHISQKDCQEDDTTVKEQNFLYKETQETEKKLLFISEPIPHPSNELRGLNEKMSNKCSMLSTAEDDIRQNFTQLPLHKNKQECILDISEHTLSENDLEELRVDHYKCNIQASVHVSDFSTDNSGSQPKQKSDTVLFPAKDLKEKDLHSIFTHDSGLITINSSQEHLTVQAKAPFHTPPEEPNECDFKNMDSLPSGKIHRKVKIILGRNRKENLEPNAEFDKRTEFITQEENRICSSPVQSLLDLFQTSEEKSEFLGFTSYTEKSGICNVLDIWEEEN
As for B2, the binding ability with huCdc7 relative to full-length H37 in series [1] was found to be 60%.
